Reference: the RNAGym collection of RNA variant scans (doi:10.1073/pnas.2313332121)
Fewer inactive variants are shown than the library holds.

B1: TPR 5TU (parent)
chain: GGAUCUUCUCGAUCUAACAAAAAAGACAAAUCUGCCACAAAGCUUGAGAGCAUCUUCGGAUGCAGAGGCGGCAGCCUUCGGUGGCGCGAUAGCGCCAACGUUCUCAACUAUGACACGCAAAACGCGUGCUCCGUUGAAUGGAGUUUAUCAUG

Variants of: B1
Test: polymerase ribozyme fitness, log enrichment relative to wild type (log ratio); higher = more active; in vitro selection for triplet polymerase activity
In short: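 Genotype fitness is the logarithm of its enrichment divided by wild-type enrichment, using inverse-variance-weighted averages of replicates. That logarithm is base 2. Enrichment was measured by Illumina sequencing of input and output libraries from one triplicate in vitro selection round, with frozen incubation at −7 °C, on PCR-built, transcribed mutant libraries of each subunit of a heterodimeric triplet polymerase ribozyme, retaining genotypes with ≥10 input reads and ≥1 read per output.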

| Variant | polymerase ribozyme fitness (log ratio) |
| --- | --- |
| C51U C93A | -2.34 |
| C51U G59A C85G A137U | ≤ -4.2 |
| C51A A73U C99U C103A U104A G126C U139A | ≤ -4.2 |
| C51G C75U C79A G80C C87A A98U C103G U145G | ≤ -4.2 |
| C51U C69G C118G A142C C149G | ≤ -4.2 |
| C51U C87U A121U | -0.813 |
| A52G A89U G124U G136C | -3.18 |
| A52C G80C | ≤ -4.2 |
| C51U G88C | -4.09 |
| A52C G92U G152U | -3.32 |
| C51A U55G G58U C95A | -1.74 |
| C51U A89G A97G G143U | -3.43 |
| C51U C99U | -0.392 |
| C51A A52C A73G G83U U127C | ≤ -4.2 |
| C51G A106G | -3.04 |
| C51U C69A G84U A91G G133A U144A A147U | ≤ -4.2 |
| C51U U53A U61A A97C G140A G143A | ≤ -4.2 |
| A52C A98G C132G | ≤ -4.2 |
| A52C U55A U56A G86C | -4.01 |
| A52C G84A C116G A120U | -1.12 |
| A52C U53A G65A A66C C79U C149U | ≤ -4.2 |

| Variant | polymerase ribozyme fitness (log ratio) |
| --- | --- |
| A52G A66U A91U | ≤ -4.2 |
| A52C A113C | -3.36 |
| A52C A113U | -3.88 |
| A52C G58C A91U A121U | ≤ -4.2 |
| C51U A60G C85A | -3.39 |
| C51U G92C U135C | -3.1 |
| A52C A89U C96G G141U | -1.47 |
| C51U U56G A73C C79G C93G A137C | ≤ -4.2 |
| A52C U56C C57A G67A C85U A97U U146G U151G | ≤ -4.2 |
| C51U G83U | -0.266 |
| C51G C76A C87U | ≤ -4.2 |
| C51U U134A | -2.32 |
| C51U G59C C72A | ≤ -4.2 |
| C51U G70U G88A G94U A106C | ≤ -4.2 |
| C51G U56A A106U | ≤ -4.2 |
| A52C C69G G84U A115C | ≤ -4.2 |
| C51G U53C G67C G86U U101G A138U | ≤ -4.2 |
| A52C C57U C85U U135A | -1.62 |
| A52C A64G C85U U145G | ≤ -4.2 |
| C51A C96A | -1.26 |
| C51U U78G C96U | ≤ -4.2 |

| Variant | polymerase ribozyme fitness (log ratio) |
| --- | --- |
| C51G G84A C95G A119G | -2.85 |
| A52C U55A C85G C116A | -3.78 |
| C51U C76U C96U A137U U144C U151A | ≤ -4.2 |
| A52G A98U | -2.02 |
| C51U C95G C105U U145A | -1.72 |
| C51A G86A G126A G128U G141A | ≤ -4.2 |
| A52C U55C G83A U151A G152A | ≤ -4.2 |
| C51U C96A C105A C118U | -2.94 |
| C51U C85G | -2.53 |
| C51U C85A | -2.63 |
| A52C C87U | -0.789 |
| G50U U146C | 0.0837 |
| A52C G84A G88C | -4.09 |
| C51U C75G G88A U130A | ≤ -4.2 |
| G50U U145C | -0.536 |
| C51G U56G C93U | -3.95 |
| C51U C75U C96U G143C | -4.11 |
| C51G C54U A98G C132A U135G | ≤ -4.2 |
| C51U C75U C118U | -1.3 |
| C51U C87U | -1.13 |
| C51U C87A | ≤ -4.2 |

| Variant | polymerase ribozyme fitness (log ratio) |
| --- | --- |
| C51A G59U G84U | ≤ -4.2 |
| A52C C87A G92C G141A | ≤ -4.2 |
| C51G C85U U144G | -1.3 |
| C51G C79G G86U C114U U134A | ≤ -4.2 |
| C51G C79A | ≤ -4.2 |
| A52G A66C C85A A110C | ≤ -4.2 |
| C51A G84A U144A | -2.52 |
| C51A A60G C95G U146C U151G | ≤ -4.2 |
| C51A U127G | -4.1 |
| C51A C54U A91U G100U G124A U135C | ≤ -4.2 |
| C51U A89C C96U A142U | -2.78 |
| A52C G58A A147U | -0.233 |
| C51A C95U C118U U135A | -2.41 |
| C51A C85U A89G U146A | -3.11 |
| C51U G58U U77G C96A | -4.18 |
| C51U U53A C96G G124U A147U | -3.84 |
| G50U U55A A66G C95U C103A A138U | ≤ -4.2 |
| A52C U101G | -1.56 |
| C51U C96G U144A | -1.45 |
| A52C U55A A66C C79G G133U A137G | ≤ -4.2 |
